Assay results: PMC7397744

Assay: crystallisation trials
Details: glycan lost; control: wild type

B1: human lysosomal acid lipase (HLAL): enzymatically deglycosylated (protein)
parent chain: MKMRFLGLVVCLVLWTLHSEGSGGKLTAVDPETNMNVSEIISYWGFPSEEYLVETEDGYILCLNRIPHGRKNHSDKGPKPVVFLQHGLLADSSNWVTNLANSSLGFILADAGFDVWMGNSRGNTWSRKHKTLSVSQDEFWAFSYDEMAKYDLPASINFILNKTGQEQVYYVGHSQGTTIGFIAFSQIPELAKRIKMFFALGPVASVAFCTSPMAKLGRLPDHLIKDLFGDKEFLPQSAFLKWLGTHVCTHVILKELCGNLCFLLCGFNERNLNMSRVDVYTTHSPAGTSVQNMLHWSQAVKFQKFQAFDWGSSAKNYFHYNQSYPPTYNVKDMLVPTAVWSGGHDWLADVYDVNILLTQITNLVFHESIPEWEHLDFIWGLDAPWRLYNKIINLMRKYQ
- other: crystallisability: no change
